The values below come from patent US20250152724A1, “ANTIBODY CONJUGATES SPECIFIC FOR MUCIN-1 AND METHODS OF USE THEREOF” (R.P. Scherer Technologies, LLC, priority 2022, published 2025).

Data set [1] in a line: analytical size exclusion chromatography (SEC) to determine aggregation. The format is physicochemical. Conditions: unconjugated antibodies; mobile phase 300 mM NaCl, 25 mM sodium phosphate pH 6.8. As for the experimental part:
SEC HPLC: To determine aggregation, samples were analyzed using analytical size exclusion chromatography (SEC; Tosoh #08541) with a mobile phase of 300 mM NaCl, 25 mM sodium phosphate pH 6.8.
Methods. Antibodies (15 mg/mL) bearing one aldehyde tag were conjugated to linker-payloads at 1.1 mM, respectively. Reactions proceeded for 72 h at 37° C. in 20 mM sodium citrate, 50 mM NaCl pH 5.5 (20/50 buffer) containing 0.85-2.5% DMA. After conjugation, free drug was removed using a 30 kD MWCO 0.5 mL Amicon spin concentrator. Samples were added to the spin concentrator, centrifuged at 15,000×g for 7 min, then diluted with 450 μL 20 mM sodium citrate, 50 mM NaCl pH 5.5 and centrifuged again. The process was repeated 10 times. To determine the DAR of the final product, ADCs were examined by analytical chromatography using hydrophobic interaction (HIC) (Tosoh #14947) or PLRP-RP (Agilent PL1912-1802 1000A, 8 μm, 50×2.1 mm) columns. HIC analysis used mobile phase A: 1.5 M ammonium sulfate, 25 mM sodium phosphate pH 7.0, and mobile phase B: 25% isopropanol, 18.75 mM sodium phosphate pH 7.0. […] To determine aggregation, samples were analyzed using analytical size exclusion chromatography (SEC; Tosoh #08541) with a mobile phase of 300 mM NaCl, 25 mM sodium phosphate pH 6.8 with 5% isopropanol.

Data set [2] deals with recombinant 60mer MUC1 non-glycosylated-biotin (Homo sapiens, UniProt P15941). Briefly: MUC1 ELISA. The format is binding. The following applies: FIGS. 2A-2C. The method, then: (§1) MUC1 ELISA: Antigens were coated directly on a Streptavidin (Pierce, 15500) or Maxisorp (VWR, 62409-024) 96-well plate at 100 ng/well in PBS. Coated plates were incubated at 4° C. overnight. The plates were blocked with casein blocking buffer (Thermo Fisher, 37528) and washed with PBS-Tween-20. Antibodies were serially diluted in PBS, added to the coated wells and incubated for 1 h at room temperature with shaking. To test for stickiness, antibodies were also added to uncoated, blocked wells. Peroxidase (HRP)-conjugated anti-Fc secondary (Jackson Immunoresearch, #109-035-098) was used for detection, followed by a […] substrate (Thermo Fisher, 34028) and H2SO4 quench. Absorbance was read at 450 nm on a Molecular Devices plate reader.
(§2) 20mer MUC1 glycosylated-biotin refers to a peptide comprising the sequence […] (SEQ ID NO:26) with Tn (GalNac) antigen or sialyl Tn (Neu5Acα2-6GalNAc) antigen modifications on some of the S/T residues, where biotin in conjugated to the N-terminus. 60mer MUC1 non-glycosylated-biotin refers to a peptide comprising the sequence […] (SEQ ID NO:27), where biotin in conjugated to the N-terminus. Decoy peptide refers to a peptide comprising the sequence […] (SEQ ID NO:28), with Tn (GalNac) antigen or sialyl Tn (Neu5Acα2-6GalNAc) antigen modifications on some of the S/T residues.

The subject of another data set is decoy peptide. Briefly: MUC1 ELISA. The format is binding. The following applies: FIGS. 2A-2C. The method, then:
as §1, §2

For data set [3], the target named is recombinant 20mer MUC1 glycosylated-biotin (Homo sapiens, UniProt P15941). Nature of the data set: MUC1 ELISA. The format is binding. Conditions: FIGS. 2A-2C. As for the experimental part:
as §1, §2

Sequence of decoy peptide (as listed by the source): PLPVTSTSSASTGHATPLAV
Sequence of recombinant 60mer MUC1 non-glycosylated-biotin (P15941 138-197): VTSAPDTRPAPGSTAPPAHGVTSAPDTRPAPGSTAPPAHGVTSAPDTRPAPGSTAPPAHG
Sequence of recombinant 20mer MUC1 glycosylated-biotin (P15941 138-157): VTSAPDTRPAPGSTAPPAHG

B1: MUC1 H02: anti-MUC1 monoclonal antibody; VH SEQ ID NO:1, VL SEQ ID NO:4 (antibody, V domains shown)
VH: EVQLVQSGAEVKKPGATVKISCKVSGYTFTDHTMHWIKQRPGKGLEWMGYFYPRDDSTNYNEKFKGRVTLTADKSTDTAYMELSSLRSEDTAVYYCARGLRYALDYWGQGTLVTVSS
VL: EIVLTQSPATLSLSPGERATLSCRASSSVSSSYLYWYQQKPGQAPRLWIIGTSNLASGVPARFSGSGSGTDYTLTISSLEPEDAAVYYCHQYSWSPPTFGQGTKLEIK
As to B1, the “monomeric as determined by SEC” value in data set [1] was “more than 98%”. The “binding to recombinant 60mer MUC1 non-glycosylated-biotin as assessed by ELISA” value in data set [2] was “not”. For the same molecule, the “binding to decoy peptide as assessed by ELISA” value (from here on “binding to decoy peptide”) with decoy peptide is “not”. Besides, the “binding to recombinant 20mer MUC1 glycosylated-biotin as assessed by ELISA” value in data set [3] was “bind”.

B2: MUC1 G12: anti-MUC1 monoclonal antibody; VH SEQ ID NO:1, VL SEQ ID NO:3 (antibody, V domains shown)
VH: EVQLVQSGAEVKKPGATVKISCKVSGYTFTDHTMHWIKQRPGKGLEWMGYFYPRDDSTNYNEKFKGRVTLTADKSTDTAYMELSSLRSEDTAVYYCARGLRYALDYWGQGTLVTVSS
VL: EIVLTQSPATLSLSPGERATLSCRASSSVGSSNLYWYQQKPGQAPRLWIYRSTKLASGVPARFSGSGSGTDYTLTISSLEPEDAAVYYCHQYRWSPPTFGQGTKLEIK
Take B2: in data set [2], the “binding to recombinant 60mer MUC1 non-glycosylated-biotin as assessed by ELISA” value was “not”. The “binding to decoy peptide” value in the data set with decoy peptide is “not”. Besides, in data set [3], the “binding to recombinant 20mer MUC1 glycosylated-biotin as assessed by ELISA” value is given as “bind”.

B3: MUC1 gB06: anti-MUC1 monoclonal antibody; VH SEQ ID NO:1, VL SEQ ID NO:2 (antibody, V domains shown)
VH: EVQLVQSGAEVKKPGATVKISCKVSGYTFTDHTMHWIKQRPGKGLEWMGYFYPRDDSTNYNEKFKGRVTLTADKSTDTAYMELSSLRSEDTAVYYCARGLRYALDYWGQGTLVTVSS
VL: EIVLTQSPATLSLSPGERATLSCRASSSVSSSYLYWYQQKPGQAPRLWIYGTSNLASGVPARFSGSGSGTDYTLTISSLEPEDAAVYYCHQYAWSPPTFGQGTKLEIK
Consider B3, for which the “binding to recombinant 60mer MUC1 non-glycosylated-biotin as assessed by ELISA” value in data set [2] is listed as “not”. In addition, the “binding to decoy peptide” value in the data set on decoy peptide was “not”. For the same molecule, the “binding to recombinant 20mer MUC1 glycosylated-biotin as assessed by ELISA” value in data set [3] is “bind”.
